Test results as given in paper PMC13397619.

B1: NLV2 TCR alpha chain (CDR3α only) (parent)
chain: AGPMKTSYDKVI

Variants of: B1
Experiment: T-Switch: Jurkat TCRβ−/− cells expressing a CDR3 saturation-mutagenesis library, stained with two peptide-HLA-A*02:01 tetramers (original and novel peptide) plus anti-CD3, FACS-sorted into four gates, gDNA sequenced
Settings: tetramers 1 µg/mL, 30 min on ice, SP, DP and SW gates expanded about 10 days between rounds ('two to three rounds of selection' in the Methods), unresolved parent, parent is a CDR3 fragment, scale: fold enrichment, numbering: sequential-on-construct, sequence starts at 1
[1] = with both tetramers (double-negative gate, binds neither): HLA-A*02:01 with … and with …, gate DN: OPPOSITE: higher = more of the variant in the gate that binds neither peptide = LESS binding (or no expression; inferred). Fold enrichment of the CDR3 variant in one FACS gate of a two-tetram
[2] = with both tetramers (double-positive gate): HLA-A*02:01 with … and with …, gate DP: higher = more of the variant in the gate that binds both peptides. Fold enrichment of the CDR3 variant in one FACS gate of a two-tetramer stain. SP/DP/SW gates were expanded and re-sorted bef

Row | Variant | enrichment [1] | enrichment [2]
1 | […] (CDR3 as printed); P3H derived by comparing it with the table's wild-type CDR3 AGPMKTSYDKVI | 0.96 | 0
2 | […] (CDR3 as printed); T6Q derived by comparing it with the table's wild-type CDR3 AGPMKTSYDKVI | 1.14 | 0
3 | […] (CDR3 as printed); G2C derived by comparing it with the table's wild-type CDR3 AGPMKTSYDKVI | 0.956 | 0
4 | […] (CDR3 as printed); M4E derived by comparing it with the table's wild-type CDR3 AGPMKTSYDKVI | 0.637 | 0
5 | […] (CDR3 as printed); K5F derived by comparing it with the table's wild-type CDR3 AGPMKTSYDKVI | 0.857 | 0
6 | […] (CDR3 as printed); G2N derived by comparing it with the table's wild-type CDR3 AGPMKTSYDKVI | 0.848 | 0
7 | […] (CDR3 as printed); K10L derived by comparing it with the table's wild-type CDR3 AGPMKTSYDKVI | 1.05 | 0
8 | […] (CDR3 as printed); D9V derived by comparing it with the table's wild-type CDR3 AGPMKTSYDKVI | 0.959 | 0
9 | […] (CDR3 as printed); I12C derived by comparing it with the table's wild-type CDR3 AGPMKTSYDKVI | 1.05 | 0
10 | […] (CDR3 as printed); D9S derived by comparing it with the table's wild-type CDR3 AGPMKTSYDKVI | 1.04 | 0
11 | […] (CDR3 as printed); Y8L derived by comparing it with the table's wild-type CDR3 AGPMKTSYDKVI | 1 | 0
12 | […] (CDR3 as printed); I12P derived by comparing it with the table's wild-type CDR3 AGPMKTSYDKVI | 1.18 | 0
13 | […] (CDR3 as printed); Y8P derived by comparing it with the table's wild-type CDR3 AGPMKTSYDKVI | 1.08 | 0
14 | […] (CDR3 as printed); I12M derived by comparing it with the table's wild-type CDR3 AGPMKTSYDKVI | 0.63 | 0
15 | […] (CDR3 as printed); Y8K derived by comparing it with the table's wild-type CDR3 AGPMKTSYDKVI | 0.928 | 0
16 | […] (CDR3 as printed); P3S derived by comparing it with the table's wild-type CDR3 AGPMKTSYDKVI | 1.18 | 0
17 | […] (CDR3 as printed); V11M derived by comparing it with the table's wild-type CDR3 AGPMKTSYDKVI | 1.2 | 0
18 | […] (CDR3 as printed); V11P derived by comparing it with the table's wild-type CDR3 AGPMKTSYDKVI | 0.923 | 0
19 | […] (CDR3 as printed); G2P derived by comparing it with the table's wild-type CDR3 AGPMKTSYDKVI | 0.883 | 0

Row | Variant | enrichment [1] | enrichment [2]
20 | […] (CDR3 as printed); K5V derived by comparing it with the table's wild-type CDR3 AGPMKTSYDKVI | 0.87 | 0
21 | […] (CDR3 as printed); K5R derived by comparing it with the table's wild-type CDR3 AGPMKTSYDKVI | 1.15 | 0
22 | […] (CDR3 as printed); K10E derived by comparing it with the table's wild-type CDR3 AGPMKTSYDKVI | 1.27 | 0
23 | […] (CDR3 as printed); P3R derived by comparing it with the table's wild-type CDR3 AGPMKTSYDKVI | 1.32 | 0
24 | […] (CDR3 as printed); P3K derived by comparing it with the table's wild-type CDR3 AGPMKTSYDKVI | 1.01 | 0
25 | […] (CDR3 as printed); S7T derived by comparing it with the table's wild-type CDR3 AGPMKTSYDKVI | 0.968 | 0
26 | […] (CDR3 as printed); P3N derived by comparing it with the table's wild-type CDR3 AGPMKTSYDKVI | 1.07 | 0
27 | […] (CDR3 as printed); P3T derived by comparing it with the table's wild-type CDR3 AGPMKTSYDKVI | 0.962 | 0
28 | […] (CDR3 as printed); G2V derived by comparing it with the table's wild-type CDR3 AGPMKTSYDKVI | 0.88 | 0
29 | […] (CDR3 as printed); Y8V derived by comparing it with the table's wild-type CDR3 AGPMKTSYDKVI | 1.48 | 0
30 | […] (CDR3 as printed); I12D derived by comparing it with the table's wild-type CDR3 AGPMKTSYDKVI | 0.942 | 0
31 | […] (CDR3 as printed); I12H derived by comparing it with the table's wild-type CDR3 AGPMKTSYDKVI | 1.04 | 0
32 | […] (CDR3 as printed); Y8G derived by comparing it with the table's wild-type CDR3 AGPMKTSYDKVI | 1.22 | 0
33 | […] (CDR3 as printed); I12F derived by comparing it with the table's wild-type CDR3 AGPMKTSYDKVI | 1.16 | 0
34 | […] (CDR3 as printed); S7C derived by comparing it with the table's wild-type CDR3 AGPMKTSYDKVI | 0.877 | 0
35 | […] (CDR3 as printed); K10D derived by comparing it with the table's wild-type CDR3 AGPMKTSYDKVI | 0.842 | 0
36 | […] (CDR3 as printed); T6C derived by comparing it with the table's wild-type CDR3 AGPMKTSYDKVI | 0.924 | 0
37 | […] (CDR3 as printed); Y8N derived by comparing it with the table's wild-type CDR3 AGPMKTSYDKVI | 0.932 | 0
38 | […] (CDR3 as printed); D9H derived by comparing it with the table's wild-type CDR3 AGPMKTSYDKVI | 1.29 | 0

Row | Variant | enrichment [1] | enrichment [2]
39 | […] (CDR3 as printed); Y8R derived by comparing it with the table's wild-type CDR3 AGPMKTSYDKVI | 1.17 | 0
40 | […] (CDR3 as printed); A1N derived by comparing it with the table's wild-type CDR3 AGPMKTSYDKVI | 0.847 | 0
41 | […] (CDR3 as printed); P3Q derived by comparing it with the table's wild-type CDR3 AGPMKTSYDKVI | 1.16 | 0
42 | […] (CDR3 as printed); K10V derived by comparing it with the table's wild-type CDR3 AGPMKTSYDKVI | 1.38 | 0
43 | […] (CDR3 as printed); G2F derived by comparing it with the table's wild-type CDR3 AGPMKTSYDKVI | 0.804 | 0
44 | […] (CDR3 as printed); Y8C derived by comparing it with the table's wild-type CDR3 AGPMKTSYDKVI | 1.27 | 0
45 | […] (CDR3 as printed); M4W derived by comparing it with the table's wild-type CDR3 AGPMKTSYDKVI | 0.861 | 0
46 | […] (CDR3 as printed); D9Y derived by comparing it with the table's wild-type CDR3 AGPMKTSYDKVI | 1.09 | 0
47 | […] (CDR3 as printed); S7H derived by comparing it with the table's wild-type CDR3 AGPMKTSYDKVI | 0.722 | 0
48 | […] (CDR3 as printed); S7P derived by comparing it with the table's wild-type CDR3 AGPMKTSYDKVI | 0.995 | 0
49 | […] (CDR3 as printed); Y8W derived by comparing it with the table's wild-type CDR3 AGPMKTSYDKVI | 1.01 | 0
50 | […] (CDR3 as printed); Y8Q derived by comparing it with the table's wild-type CDR3 AGPMKTSYDKVI | 0.629 | 0
51 | […] (CDR3 as printed); V11D derived by comparing it with the table's wild-type CDR3 AGPMKTSYDKVI | 0.904 | 0
52 | […] (CDR3 as printed); G2M derived by comparing it with the table's wild-type CDR3 AGPMKTSYDKVI | 1.1 | 0
53 | […] (CDR3 as printed); K5I derived by comparing it with the table's wild-type CDR3 AGPMKTSYDKVI | 1.56 | 0
54 | […] (CDR3 as printed); P3D derived by comparing it with the table's wild-type CDR3 AGPMKTSYDKVI | 1.14 | 0
55 | […] (CDR3 as printed); V11N derived by comparing it with the table's wild-type CDR3 AGPMKTSYDKVI | 1.11 | 0
56 | […] (CDR3 as printed); T6E derived by comparing it with the table's wild-type CDR3 AGPMKTSYDKVI | 1.78 | 0
57 | […] (CDR3 as printed); M4D derived by comparing it with the table's wild-type CDR3 AGPMKTSYDKVI | 0.825 | 0
